Laboratory results from paper PMC1935004.

What was measured:
[1] = biological target: T1, BLBlaI-NTD (Bacillus licheniformis, UniProt P06555 1-82); experiment: NMR titration
T1 sequence: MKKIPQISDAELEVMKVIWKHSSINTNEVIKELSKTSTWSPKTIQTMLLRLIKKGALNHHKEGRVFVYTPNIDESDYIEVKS

[2] = biological target: T2, SAMecI-NTD (Staphylococcus aureus, UniProt P68261 1-83); experiment: NMR titration
T2 sequence: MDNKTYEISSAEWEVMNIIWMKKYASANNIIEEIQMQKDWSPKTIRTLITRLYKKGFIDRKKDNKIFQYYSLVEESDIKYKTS

B1: 1/2OP1blaP (dsDNA)
DNA 1: AAAGTATTACAT
DNA 2: ATGTAATACTTT
- Kd [1]: 190 ± 50 µM
- Kd [2]: 860 ± 80 µM
